Residue numbers refer to the chain shown, from its start.
T1: FcγRIIb extracellular domain, His tag (human, UniProt P31994 43-217)
T1 construct: extracellular domain; also called FcgRIIb
T1 sequence (looked up): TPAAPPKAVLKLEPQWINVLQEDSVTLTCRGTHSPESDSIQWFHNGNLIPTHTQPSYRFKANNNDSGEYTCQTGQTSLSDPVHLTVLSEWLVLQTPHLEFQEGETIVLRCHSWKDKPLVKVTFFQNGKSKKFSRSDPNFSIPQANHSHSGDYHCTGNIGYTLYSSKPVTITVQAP

T2: FcγRIIa R type extracellular domain, His tag (human, UniProt P12318 34-217)
T2 construct: extracellular domain; also called FcgRIIaR
T2 sequence (looked up): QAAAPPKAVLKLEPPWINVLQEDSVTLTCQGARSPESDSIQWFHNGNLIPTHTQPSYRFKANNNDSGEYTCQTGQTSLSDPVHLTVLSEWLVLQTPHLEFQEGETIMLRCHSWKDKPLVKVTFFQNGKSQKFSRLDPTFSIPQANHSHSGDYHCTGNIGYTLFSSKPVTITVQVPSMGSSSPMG

T3: FcγRIIa R type extracellular domain with C-terminal His tag (human, UniProt P12318 34-217)
T3 construct: extracellular domain; also called FcgRIIaR; not shown: His tag at the C terminus
T3 sequence (looked up): T2 sequence (looked up)

T4: FcγRIIa H type extracellular domain with C-terminal His tag (human, UniProt P12318 34-217)
T4 construct: extracellular domain; also called FcgRIIaH; not shown: His tag at the C terminus
T4 sequence (looked up): T2 sequence (looked up) with R134H

T5: FcγRIIb extracellular domain with C-terminal His tag (human, UniProt P31994 43-217)
T5 construct: extracellular domain; also called FcgRIIb; not shown: His tag at the C terminus
T5 sequence (looked up): T1 sequence (looked up)

T6: FcγRIIa H type extracellular domain, His tag (human, UniProt P12318 34-217)
T6 construct: extracellular domain; also called FcgRIIaH
T6 sequence (looked up): T2 sequence (looked up) with R134H

B1: IL6R-P731/IL6R-L (antibody, human IgG1, kappa)
heavy: QVQLQESGPGLVKPSETLSLTCAVSGHSISHDHAWSWVRQPPGEGLEWIGFISYSGITNYNPSLQGRVTISRDNSKNTLYLQMNSLRAEDTAVYYCARSLARTTAMDYWGEGTLVTVSSASTKGPSVFPLAPSSKSTSGGTAALGCLVKDYFPEPVTVSWNSGALTSGVHTFPAVLQSSGLYSLSSVVTVPSSSLGTQTYICNVNHKPSNTKVDKKVEPKSCDKTHTCPPCPAPELLGQDSVMLFPPKPKDTLMISRTPEVTCVVVDVSPEDPEVKFNWYVDGVEVHNAKTKPREEQENSTYRVVSVLTVLHQDWLNGKEYKCKVHNKALPAPIEKTISKAKGQPREPQVYTLPPSRDELTKNQVSLTCLVKGFYPSDIAVEWESNGQPENNYKTTPPVLDSDGSFFLYSKLTVDKSRWQQGNVFSCSVMHEALHNHYTQKSLSLSP
light: not shown
B2: IL6R-P733/IL6R-L (antibody, human IgG1, kappa)
heavy: B1 heavy with L237F
light: not shown
B3: IL6R-P734/IL6R-L (antibody, human IgG1, kappa)
heavy: B1 heavy with L237F, P270H, A332H
light: not shown
B4: IL6R-P735/IL6R-L (antibody, human IgG1, kappa)
heavy: B1 heavy with L237F, H326S, A332H
light: not shown
B5: IL6R-P732/IL6R-L (antibody, human IgG1, kappa)
heavy: B1 heavy with L237F, Q239G
light: not shown
B6: IL6R-P737/IL6R-L (antibody, human IgG1, kappa)
heavy: B1 heavy with A332H
light: not shown
B7: IL6R-BP488/IL6R-L (antibody, human IgG1, kappa, name in EU numbering)
heavy: QVQLQESGPGLVKPSETLSLTCAVSGHSISHDHAWSWVRQPPGEGLEWIGFISYSGITNYNPSLQGRVTISRDNSKNTLYLQMNSLRAEDTAVYYCARSLARTTAMDYWGEGTLVTVSSASTKGPSVFPLAPSSKSTSGGTAALGCLVKDYFPEPVTVSWNSGALTSGVHTFPAVLQSSGLYSLSSVVTVPSSSLGTQTYICNVNHKPSNTKVDKKVEPKSCDKTHTCPPCPAPDLLGDDSVFLFPPKPKDTLMISRTPEVTCVVIDVAEEDGEVKFNWYVDGVEVHNAKTKPREEQDNSTYRVVSVLTVLHQDWLNGKEYKCKVSNKALPRPIEKTISKAKGQPREPQVYTLPPSRDELTKNQVSLTCLVKGFYPSDIAVEWESNGQPENNYKTTPPVLDSDGSFFLYSKLTVDKSRWQQGNVFSCSVMHEALHNHYTQESLSLSP
light: not shown
notes: human IgG1
B8: IL6R-BP489/IL6R-L (antibody, human IgG1, kappa, name in EU numbering)
heavy: B7 heavy with P398M
light: not shown
notes: human IgG1
B9: IL6R-BP502/IL6R-L (antibody, human IgG1, kappa, name in EU numbering)
heavy: B7 heavy with A329G
light: not shown
notes: human IgG1
B10: IL6R-BP497/IL6R-L (antibody, human IgG1, kappa, name in EU numbering)
heavy: B7 heavy with D298Y, A329G
light: not shown
notes: human IgG1
B11: IL6R-BP438/IL6R-L (antibody, human IgG1, kappa, name in EU numbering)
heavy: B7 heavy with I266V, D298Y, I334T
light: not shown
notes: human IgG1
B12: IL6R-BP496/IL6R-L (antibody, human IgG1, kappa, name in EU numbering)
heavy: B7 heavy with R332A
light: not shown
notes: human IgG1
B13: IL6R-BP498/IL6R-L (antibody, human IgG1, kappa, name in EU numbering)
heavy: B7 heavy with D298Y, P398L
light: not shown
notes: human IgG1
B14: IL6R-BP499/IL6R-L (antibody, human IgG1, kappa, name in EU numbering)
heavy: B7 heavy with P398L
light: not shown
notes: human IgG1
B15: IL6R-BP491/IL6R-L (antibody, human IgG1, kappa, name in EU numbering)
heavy: B7 heavy with D235E
light: not shown
notes: human IgG1
B16: IL6R-BP558/IL6R-L (antibody, human IgG1, kappa, name in EU numbering)
heavy: B7 heavy with D235E, A269G, E274D, D298Y
light: not shown
notes: human IgG1
B17: IL6R-BP487/IL6R-L (antibody, human IgG1, kappa, name in EU numbering)
heavy: B7 heavy with D298Y, P398M
light: not shown
notes: human IgG1
B18: IL6R-BP554/IL6R-L (antibody, human IgG1, kappa, name in EU numbering)
heavy: B7 heavy with D235E, E274D, D298Y
light: not shown
notes: human IgG1
B19: IL6R-BP510/IL6R-L (antibody, human IgG1, kappa, name in EU numbering)
heavy: B7 heavy with D235E, E274P, D298Y
light: not shown
notes: human IgG1

Each binder was assayed against T1, FcγRIIb extracellular domain, His tag (assay: SPR, bound amount per captured antibody).

In order of falling “Relative FcgRIIb-binding Activity” value:
1. B4  173 % of IL6R-G1d/IL6R-L
2. B3  169 % of IL6R-G1d/IL6R-L
3. B5  165 % of IL6R-G1d/IL6R-L
4. B2  104 % of IL6R-G1d/IL6R-L
5. B6  99.5 % of IL6R-G1d/IL6R-L
6. B1  85.8 % of IL6R-G1d/IL6R-L

What follows are binders tested against T2, FcγRIIa R type extracellular domain, … (assay: SPR, bound amount per captured antibody).

In order of falling “Relative FcgRIIaR-binding Activity” value:
1. B4  14.3 % of IL6R-G1d/IL6R-L
2. B3  12.5 % of IL6R-G1d/IL6R-L
3. B5  11.9 % of IL6R-G1d/IL6R-L
4. B1  8.1 % of IL6R-G1d/IL6R-L
5. B6  7.2 % of IL6R-G1d/IL6R-L
6. B2  6.3 % of IL6R-G1d/IL6R-L

What follows are binders tested against T3, FcγRIIa R type extracellular domain … (assay: SPR, antibody captured, FcgR analyte).

In order of falling Kd:
1. B12  470 nM
2. B16  330 nM
3. B11  180 nM
4. B15  120 nM
5. B9  110 nM
6. B10  85 nM
7. B7  74 nM
8. B13  51 nM
9. B14  49 nM
10. B8  43 nM
11. B17  39 nM

Each binder was assayed against T7, FcγRIa extracellular domain with C-terminal His tag (human, UniProt P12314 16-292) (assay: SPR, antibody captured, FcgR analyte).
T7 construct: also called FcgRIa; CD64; not shown: His tag at the C terminus
T7 sequence (P12314 16-292): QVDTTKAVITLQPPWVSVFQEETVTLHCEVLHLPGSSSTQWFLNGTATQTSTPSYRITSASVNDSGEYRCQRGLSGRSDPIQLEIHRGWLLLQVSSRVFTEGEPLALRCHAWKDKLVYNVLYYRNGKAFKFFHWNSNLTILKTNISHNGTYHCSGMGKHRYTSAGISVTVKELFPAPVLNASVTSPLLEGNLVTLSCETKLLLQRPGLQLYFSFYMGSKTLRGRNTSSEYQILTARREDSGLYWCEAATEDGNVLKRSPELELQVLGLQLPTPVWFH

In order of falling Kd:
1. B18  8 nM
2. B19  6 nM
3. B15  5.3 nM
4. B7  2.2 nM
5. B9  2.1 nM
6. B10  2.1 nM
7. B8  1.3 nM
8. B13  1.3 nM
9. B12  1.2 nM
10. B14  1.2 nM
11. B17  1.2 nM

The binders below were run against T4, FcγRIIa H type extracellular domain … (assay: SPR, antibody captured, FcgR analyte).

In order of rising Kd:
1. B17  840 nM
2. B8  870 nM
3. B13  930 nM
4. B10  960 nM
5. B14  1000 nM
6. B9  1300 nM
7. B7  1600 nM
8. B11  1600 nM
9. B15  2200 nM
10. B18  2300 nM
11. B12  3700 nM
12. B19  4000 nM
13. B16  4900 nM

The binders below were run against T5, FcγRIIb extracellular domain with … (assay: SPR, antibody captured, FcgR analyte).

In order of rising Kd:
1. B8  1 nM
2. B17  1.2 nM
3. B14  1.5 nM
4. B13  1.7 nM
5. B7  1.9 nM
6. B15  3 nM
7. B9  3.7 nM
8. B19  3.8 nM
9. B10  4.1 nM
10. B16  9 nM
11. B12  18 nM

Each binder was assayed against T3, FcγRIIa R type extracellular domain … (assay: SPR; KD of IL6R-B3/IL6R-L divided by KD of variant).

In order of rising “Relative FcgRIIaR-binding Activity” value:
1. B12  2.3
2. B15  9.2
3. B9  9.9
4. B10  12.6
5. B7  14.6
6. B13  21.3
7. B14  21.9
8. B8  25.2
9. B17  27.8

What follows are binders tested against T5, FcγRIIb extracellular domain with … (assay: SPR; KD of IL6R-B3/IL6R-L divided by KD of variant).

In order of falling “Relative FcgRIIb-binding Activity” value:
1. B8  3090
2. B17  2690
3. B14  2120
4. B13  1870
5. B7  1670
6. B15  1020
7. B9  837
8. B10  761
9. B12  168

These binders were tested against T1, FcγRIIb extracellular domain, His tag (assay: SPR, KD ratio).

In order of falling “Relative FcgRIIb-binding Activity” value:
1. B4  2.26 fold of IL6R-G1d/IL6R-L
2. B3  2.07 fold of IL6R-G1d/IL6R-L
3. B5  1.75 fold of IL6R-G1d/IL6R-L
4. B2  1.09 fold of IL6R-G1d/IL6R-L
5. B6  0.802 fold of IL6R-G1d/IL6R-L
6. B1  0.499 fold of IL6R-G1d/IL6R-L

Each binder was assayed against T8, FcγRIa extracellular domain, His tag (human, UniProt P12314 16-292) (assay: SPR, KD ratio).
T8 construct: whole entry named; also called FcgRIa
T8 sequence (P12314 16-292): as above

In order of falling “Relative FcgRIa-binding Activity” value:
1. B1  0.0049 fold of IL6R-G1d/IL6R-L
2. B6  0.002 fold of IL6R-G1d/IL6R-L
3. B3  0.0015 fold of IL6R-G1d/IL6R-L
4. B4  0.0013 fold of IL6R-G1d/IL6R-L
5. B5  0.0005 fold of IL6R-G1d/IL6R-L
6. B2  0.0001 fold of IL6R-G1d/IL6R-L

The binders below were run against T6, FcγRIIa H type extracellular domain, … (assay: SPR, KD ratio).

In order of rising “Relative FcgRIIaH-binding Activity” value:
1. B2  0.006 fold of IL6R-G1d/IL6R-L
2. B6  0.006 fold of IL6R-G1d/IL6R-L
3. B1  0.007 fold of IL6R-G1d/IL6R-L
4. B4  0.007 fold of IL6R-G1d/IL6R-L
5. B5  0.01 fold of IL6R-G1d/IL6R-L
6. B3  0.011 fold of IL6R-G1d/IL6R-L

The binders below were run against T9, FcγRIIIa V type extracellular domain, His tag (human, UniProt P08637 17-208) (assay: SPR, KD ratio).
T9 construct: extracellular domain; also called FcgRIIIaV
T9 sequence (P08637 17-208 F176V): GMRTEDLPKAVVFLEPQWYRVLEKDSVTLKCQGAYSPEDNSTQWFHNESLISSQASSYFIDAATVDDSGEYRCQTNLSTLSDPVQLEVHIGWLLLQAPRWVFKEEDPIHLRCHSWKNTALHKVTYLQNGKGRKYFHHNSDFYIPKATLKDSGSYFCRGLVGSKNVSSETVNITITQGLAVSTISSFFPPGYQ

In order of rising “Relative FcgRIIIaV-binding Activity” value:
1. B3  0.003 fold of IL6R-G1d/IL6R-L
2. B2  0.004 fold of IL6R-G1d/IL6R-L
3. B5  0.004 fold of IL6R-G1d/IL6R-L
4. B4  0.005 fold of IL6R-G1d/IL6R-L
5. B6  0.005 fold of IL6R-G1d/IL6R-L
6. B1  0.006 fold of IL6R-G1d/IL6R-L

What follows are binders tested against T2, FcγRIIa R type extracellular domain, … (assay: SPR, KD ratio).

In order of falling “Relative FcgRIIaR-binding Activity” value:
1. B4  0.021 fold of IL6R-G1d/IL6R-L
2. B3  0.018 fold of IL6R-G1d/IL6R-L
3. B5  0.017 fold of IL6R-G1d/IL6R-L
4. B1  0.012 fold of IL6R-G1d/IL6R-L
5. B6  0.011 fold of IL6R-G1d/IL6R-L
6. B2  0.009 fold of IL6R-G1d/IL6R-L

Reference: US20220411483A1 (Chugai, published 2022)
